Assay results: US20240052052A1 (ANTENGENE BIOLOGICS, published 2024)

How the values were obtained:
human CD24 [1] = biological target: T1, human CD24 (human, UniProt P25063 27-59, heavily glycosylated, GPI-anchored (as described in the background)); assay: FACS, HT-29 cells
T1 construct: whole, on cells; Target of all cell-based FACS assays; also called hCD24; Cluster of differentiation 24
T1 chain (looked up): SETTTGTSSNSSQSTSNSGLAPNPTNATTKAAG
Protocol: (§1) Sequences of some of antibodies from Table 1 were selected to generate and produce human IgG4 chimeric antibodies. […] The protocol for FACs analysis is described as follows: [0536] a. Digested cells using TrypLE™ Express Enzyme (IX); Centrifuged the harvested cells at 400 g for 5 min and discarding the supernatant. [0537] b. Washed the cells 2 times with cold FACS buffer by centrifuging at 400 g for 5 min and discarding the supernatant. [0538] c. […] Incubate at […] for 1 h. [0539] d. Washed the cells twice by using the condition in step b. Resuspended the cells with 100 μl/well diluted 2nd antibody, incubated at 4 degree for 1 h in the dark. [0540] e. Washed the cells twice by using the condition in step b. Resuspended the cells with 100 μl/well cold FACS buffer. Kept the cells in dark for FACS analysis.

human CD24 [2] = biological target: T1, human CD24; assay: FACS, H1975 cells
Protocol: (§2) Screening & Expansion: The subcloning plates were screened by Acumen assay and the subclones with good binding ability were expanded to 24-wells for confirmation tests. The specificity and cross-reactivity of these subclones were confirmed with FACs analysis. […] Fluorescent dye-conjugated secondary antibody was used to detect the binding of the primary antibody with the cells. Median fluorescence intensity (MFI) was measured by FACs analysis.

human CD24 [3] = biological target: T1, human CD24; assay: FACS, A549 cells
Protocol: as §1

human CD24 [4] = biological target: T1, human CD24; assay: FACS, CHOK1-hCD24 cells
human CD24 [5] = biological target: T1, human CD24; assay: FACS, MCF7 cells
Protocol: as §1

human CD24 [6] = biological target: T1, human CD24; assay: FACS, H1975 cells
Protocol: as §1

human CD24 [7] = biological target: T1, human CD24; assay: FACS, MCF7 cells
human CD24 [8] = biological target: T1, human CD24; assay: FACS, MDA-MB-468 cells
human CD24 [9] = biological target: T1, human CD24; assay: FACS, 5637 cells
Protocol: as §2

human CD24 [10] = biological target: T1, human CD24; assay: FACS, Nalm1 cells
Protocol: as §1

human CD24 [11] = biological target: T1, human CD24; assay: FACS, 293F-hCD24 cells
human CD24 [12] = biological target: T1, human CD24; assay: FACS, 293F-hCD24 cells
Protocol: as §2

human CD24 [13] = biological target: T1, human CD24; assay: FACS, 5637 cells
human CD24 [14] = biological target: T1, human CD24; assay: FACS, 293F-hCD24 cells
Protocol: as §1

human CD24 [15] = biological target: T1, human CD24; assay: FACS, 5637 cells
Protocol: as §1

human CD24 [16] = biological target: T1, human CD24; assay: FACS, MCF7 cells
Protocol: as §2

human CD24 [17] = biological target: T1, human CD24; assay: cell-based or functional assay
human CD24 [18] = biological target: T1, human CD24; assay: FACS, CHOK1-hCD24 cells
Protocol: as §1

human CD24 [19] = biological target: T1, human CD24; assay: FACS, Nalm1 cells
Protocol: as §2

human CD24 [20] = biological target: T1, human CD24; assay: FACS, MDA-MB-468 cells
Protocol: as §1

human CD24 [21] = biological target: T1, human CD24; assay: FACS, Nalm1 cells

B1: SN3 (antibody, V domains shown)
VH: QVQLKESGPGLVAPSQSLSITCTVSGFSLTSYGVHWVRQPPGKGLEWLGVIWAGGSTNYNSALMSRLSISKDNSKSQVFLKMNSLQTDDTAMYYCAVYYGYLFFAYWGQGTLVTVSA
VL: ENVLTQSPAIMSASPGEKVTMTCSASSSVSYMHWYQQKSTTSPKLWIYDTSKLASGVPGRFSGSGSGNSYSLTISSMEAEDVATYYCFQGSGYPLTFGGGTKLEIK
With B1 the EC50 (human CD24 [1]) was 6.61 nM, the “Max MFI” value (human CD24 [1]) was 5900 and the “FACS MFI” value (human CD24 [2]) was 5210. For the same binder, the EC50 (human CD24 [3]) was 3 nM, the “Max MFI” value (human CD24 [3]) was 8820 and the EC50 (human CD24 [4]) was 8.67 nM. For the same binder, the EC50 (human CD24 [5]) was 8 nM, the “Max MFI” value (human CD24 [5]) was 761 and the EC50 (human CD24 [6]) was 8.26 nM. For the same binder, the EC50 (human CD24 [7]) was 6.54 nM, the EC50 (human CD24 [8]) was 7.37 nM and the “FACS MFI” value (human CD24 [9]) was 9400. For the same binder, the EC50 (human CD24 [10]) was 3.43 nM, the “Max MFI” value (human CD24 [10]) was 48400 and the EC50 (human CD24 [11]) was 3.5 nM. For the same binder, the “FACS MFI” value (human CD24 [12]) was 6560, the EC50 (human CD24 [13]) was 5.74 nM and the EC50 (human CD24 [14]) was 3.25 nM. The “Max MFI” value (human CD24 [14]) was 34100, the EC50 (human CD24 [15]) was 2.7 nM and the “FACS MFI” value (human CD24 [16]) was 1080. The “EC50 (nM), phagocytosis against HT-29 cells” value (human CD24 [17]) was 2.1 nM, the “Max phagocytosis Index (%), phagocytosis against HT-29 cells” value (human CD24 [17]) was 68.2% and the EC50 (human CD24 [18]) was 3.63 nM. The “Max MFI” value (human CD24 [18]) was 29700, the “FACS MFI” value (human CD24 [19]) was 11800 and the EC50 (human CD24 [20]) was 4.2 nM. The “FACS MFI” value (human CD24 [20]) was 6690, the “Max MFI” value (human CD24 [20]) was 10800 and the EC50 (human CD24 [21]) was 5.08 nM.
